Test results reported in patent US20190077860A1 (EISAI R AND D MANAGEMENT, published 2019).
Where a chain is given by its changes, count along the chain named.

How the values were obtained:
Experiment in all cases: ELISA
[1] = target: T1, human EphB4 extracellular region-SEAP-His protein (human, UniProt P54760 16-539)
T1 construct: extracellular domain; also called hEphB4-SEAP-His
T1 sequence (looked up): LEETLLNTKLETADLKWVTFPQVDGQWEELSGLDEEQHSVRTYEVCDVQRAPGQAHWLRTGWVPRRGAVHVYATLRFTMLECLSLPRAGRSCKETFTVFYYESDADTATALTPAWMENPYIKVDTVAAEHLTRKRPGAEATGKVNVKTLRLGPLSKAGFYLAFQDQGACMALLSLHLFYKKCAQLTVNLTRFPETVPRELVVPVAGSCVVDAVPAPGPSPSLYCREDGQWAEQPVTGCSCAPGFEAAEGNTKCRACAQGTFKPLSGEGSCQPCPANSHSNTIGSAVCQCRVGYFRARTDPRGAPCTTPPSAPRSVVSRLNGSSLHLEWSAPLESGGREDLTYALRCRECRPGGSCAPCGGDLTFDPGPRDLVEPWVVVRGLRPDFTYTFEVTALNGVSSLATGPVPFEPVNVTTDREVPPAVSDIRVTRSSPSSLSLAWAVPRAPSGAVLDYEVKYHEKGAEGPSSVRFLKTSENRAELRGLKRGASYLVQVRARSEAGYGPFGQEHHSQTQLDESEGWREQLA

[2] = target: T2, human EphB3 extracellular region-SEAP-His protein (human, UniProt P54753 34-559)
T2 construct: extracellular domain; also called hEphB3-SEAP-His
T2 sequence (looked up): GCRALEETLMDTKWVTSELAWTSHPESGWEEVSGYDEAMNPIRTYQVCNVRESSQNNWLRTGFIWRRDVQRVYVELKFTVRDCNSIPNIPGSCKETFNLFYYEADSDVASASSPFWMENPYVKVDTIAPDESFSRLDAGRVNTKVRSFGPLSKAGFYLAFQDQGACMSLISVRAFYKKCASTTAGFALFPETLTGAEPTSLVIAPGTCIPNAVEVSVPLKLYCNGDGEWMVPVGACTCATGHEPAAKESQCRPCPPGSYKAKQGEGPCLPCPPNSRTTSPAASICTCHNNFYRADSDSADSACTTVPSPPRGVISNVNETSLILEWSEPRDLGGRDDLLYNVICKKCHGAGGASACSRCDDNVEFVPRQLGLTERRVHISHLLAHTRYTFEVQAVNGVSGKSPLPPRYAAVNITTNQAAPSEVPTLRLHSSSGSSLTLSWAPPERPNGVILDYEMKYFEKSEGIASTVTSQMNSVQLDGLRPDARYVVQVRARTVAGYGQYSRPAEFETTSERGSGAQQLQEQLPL

[3] = target: T3, human EphA4 extracellular region-SEAP-His protein (human, UniProt P54764 20-547)
T3 construct: also called hEphA4-SEAP-His

[4] = target: T4, human EphA6 extracellular region-SEAP-His protein (human, UniProt Q9UF33 23-550)
T4 construct: extracellular domain; also called hEphA6-SEAP-His
T4 sequence (looked up): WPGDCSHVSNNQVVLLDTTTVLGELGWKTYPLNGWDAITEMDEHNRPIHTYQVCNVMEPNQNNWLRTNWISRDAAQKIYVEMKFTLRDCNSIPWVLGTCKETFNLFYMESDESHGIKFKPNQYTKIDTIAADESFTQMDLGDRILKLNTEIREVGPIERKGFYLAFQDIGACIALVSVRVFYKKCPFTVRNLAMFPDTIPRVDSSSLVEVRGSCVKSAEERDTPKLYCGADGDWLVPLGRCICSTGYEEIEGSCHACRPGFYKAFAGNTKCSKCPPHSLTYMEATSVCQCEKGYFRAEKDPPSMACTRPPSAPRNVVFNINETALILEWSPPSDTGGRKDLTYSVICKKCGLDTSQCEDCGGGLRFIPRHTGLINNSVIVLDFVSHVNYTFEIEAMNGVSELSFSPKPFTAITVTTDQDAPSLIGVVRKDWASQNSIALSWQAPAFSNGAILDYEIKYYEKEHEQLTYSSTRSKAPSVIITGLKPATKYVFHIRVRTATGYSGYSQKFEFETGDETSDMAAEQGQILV

[5] = target: T5, human EphA2 extracellular region-SEAP-His protein (human, UniProt P29317 24-537)
T5 construct: extracellular domain; also called hEphA2-SEAP-His

[6] = target: T6, human EphB1 extracellular region-SEAP-His protein (human, UniProt P54762 18-540)
T6 construct: extracellular domain; also called hEphB1-SEAP-His
T6 sequence (looked up): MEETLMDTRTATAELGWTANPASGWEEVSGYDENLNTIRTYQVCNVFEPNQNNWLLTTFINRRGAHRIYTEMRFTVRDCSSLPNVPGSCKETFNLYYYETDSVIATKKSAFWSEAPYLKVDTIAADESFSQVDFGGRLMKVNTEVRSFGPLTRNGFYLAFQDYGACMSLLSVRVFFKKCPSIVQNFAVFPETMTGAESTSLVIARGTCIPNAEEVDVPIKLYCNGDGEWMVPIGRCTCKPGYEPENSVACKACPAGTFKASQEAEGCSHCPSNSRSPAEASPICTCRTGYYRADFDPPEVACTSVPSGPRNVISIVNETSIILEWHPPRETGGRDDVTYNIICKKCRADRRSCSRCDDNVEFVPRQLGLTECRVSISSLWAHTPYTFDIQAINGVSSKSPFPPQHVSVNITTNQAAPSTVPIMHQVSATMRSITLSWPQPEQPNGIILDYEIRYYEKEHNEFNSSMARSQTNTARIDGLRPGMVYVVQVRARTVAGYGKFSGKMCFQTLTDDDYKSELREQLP

T5 sequence (P29317 24-537): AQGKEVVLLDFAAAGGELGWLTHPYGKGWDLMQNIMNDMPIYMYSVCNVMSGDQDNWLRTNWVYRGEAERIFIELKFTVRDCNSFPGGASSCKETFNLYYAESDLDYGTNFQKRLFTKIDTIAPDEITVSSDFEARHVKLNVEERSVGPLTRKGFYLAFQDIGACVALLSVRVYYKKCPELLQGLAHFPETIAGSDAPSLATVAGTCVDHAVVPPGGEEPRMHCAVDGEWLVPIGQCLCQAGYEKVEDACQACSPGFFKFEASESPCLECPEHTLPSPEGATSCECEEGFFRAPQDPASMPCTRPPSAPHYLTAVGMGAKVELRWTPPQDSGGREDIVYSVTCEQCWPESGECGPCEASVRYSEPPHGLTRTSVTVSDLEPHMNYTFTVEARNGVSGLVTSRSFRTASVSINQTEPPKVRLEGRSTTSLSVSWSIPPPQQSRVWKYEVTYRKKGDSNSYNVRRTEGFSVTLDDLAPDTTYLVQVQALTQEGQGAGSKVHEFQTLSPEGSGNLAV
T3 sequence (P54764 20-547): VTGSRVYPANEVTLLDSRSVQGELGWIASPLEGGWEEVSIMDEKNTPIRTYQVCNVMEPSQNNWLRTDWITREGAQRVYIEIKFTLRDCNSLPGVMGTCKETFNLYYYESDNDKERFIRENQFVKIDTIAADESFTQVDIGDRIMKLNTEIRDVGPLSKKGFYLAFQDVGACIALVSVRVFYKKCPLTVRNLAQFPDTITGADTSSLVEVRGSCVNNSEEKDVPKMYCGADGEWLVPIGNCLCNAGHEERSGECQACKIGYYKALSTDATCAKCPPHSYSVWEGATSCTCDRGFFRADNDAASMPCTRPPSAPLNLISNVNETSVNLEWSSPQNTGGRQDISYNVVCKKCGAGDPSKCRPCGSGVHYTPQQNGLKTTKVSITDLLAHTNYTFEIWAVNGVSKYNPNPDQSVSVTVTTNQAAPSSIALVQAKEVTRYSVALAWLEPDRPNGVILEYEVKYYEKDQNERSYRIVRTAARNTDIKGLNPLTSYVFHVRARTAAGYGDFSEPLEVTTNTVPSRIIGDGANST

B1: humanized antibody No. 137 (antibody, human IgG2)
heavy: QIQLVQSGSELKKPGASVKVSCKASGYTFTDYSMHWVRQAPGQGLKWMGWINTETGEPTYADDFKGRFVFSLDTSVSTAYLQISSLKAEDTAVYYCARIPLYYYGSRYWYFDVWGQGTTVTVSSASTKGPSVFPLAPSSRSTSESTAALGCLVKDYFPEPVTVSWNSGALTSGVHTFPAVLQSSGLYSLSSVVTVPSSNFGTQTYTCNVDHKPSNTKVDKTVERKSCVECPPCPAPPAAAPSVFLFPPKPKDTLMISRTPEVTCVVVDVSHEDPEVQFNWYVDGVEVHNAKTKPREEQFNSTFRVVSVLTVVHQDWLNGKEYKCKVSNKGLPAPIEKTISKTKGQPREPQVYTLPPSREEMTKNQVSLTCLVKGFYPSDIAVEWESNGQPENNYKTTPPMLDSDGSFFLYSKLTVDKSRWQQGNVFSCSVMHEALHNHYTQKSLSLSPG
light: EIVMTQSPATLSVSPGERATLSCRASENIYRNLAWYQQKPGQSPRLLIYAATNLADGIPARFSGSGSGTEYTLTISSLQSEDFAVYYCQHFWGTPWTFGQGTKVEIKRTVAAPSVFIFPPSDEQLKSGTASVVCLLNNFYPREAKVQWKVDNALQSGNSQESVTEQDSKDSTYSLSSTLTLSKADYEKHKVYACEVTHQGLSSPVTKSFNRGEC
notes: human Ig kappa; also called L2-4/HK4
- A450 as % of hEphA4-SEAP-His [1]: 5.7%
- A450 as % of hEphA4-SEAP-His [2]: 5.7%
- A450 as % of hEphA4-SEAP-His [3]: 100%
- A450 as % of hEphA4-SEAP-His [4]: 7.1%
- A450 as % of hEphA4-SEAP-His [5]: 5.4%
- A450 as % of hEphA4-SEAP-His [6]: 5.8%

B2: humanized antibody No. 94 (antibody, human IgG1, kappa)
heavy: QVQLVQSGSELKKPGASVKVSCKASGYTFTDYSMHWVRQAPGQGLKWMGWINTETGEPTYAQGFTGRFVFSLDTSVSTAYLQISSLKAEDTAVYYCARIPLYYYGSRYWYFDVWGQGTTVTVSSASTKGPSVFPLAPSSKSTSGGTAALGCLVKDYFPEPVTVSWNSGALTSGVHTFPAVLQSSGLYSLSSVVTVPSSSLGTQTYICNVNHKPSNTKVDKRVEPKSCDKTHTCPPCPAPPAAAPSVFLFPPKPKDTLMISRTPEVTCVVVDVSHEDPEVQFNWYVDGVEVHNAKTKPREEQFNSTFRVVSVLTVVHQDWLNGKEYKCKVSNKGLPAPIEKTISKTKGQPREPQVYTLPPSREEMTKNQVSLTCLVKGFYPSDIAVEWESNGQPENNYKTTPPMLDSDGSFFLYSKLTVDKSRWQQGNVFSCSVMHEALHNHYTQKSLSLSPG
light: B1 light
notes: human Ig kappa; also called L2-4/HA2
- A450 as % of hEphA4-SEAP-His [1]: 6.5%
- A450 as % of hEphA4-SEAP-His [2]: 6.7%
- A450 as % of hEphA4-SEAP-His [3]: 100%
- A450 as % of hEphA4-SEAP-His [4]: 8.6%
- A450 as % of hEphA4-SEAP-His [5]: 6.4%
- A450 as % of hEphA4-SEAP-His [6]: 6.7%

B3: humanized antibody No. 71 (antibody, human IgG1, kappa)
heavy: B2 heavy with V2I
light: B1 light
notes: human Ig kappa; also called L2-4/HA4
- A450 as % of hEphA4-SEAP-His [1]: 5.5%
- A450 as % of hEphA4-SEAP-His [2]: 5.5%
- A450 as % of hEphA4-SEAP-His [3]: 100%
- A450 as % of hEphA4-SEAP-His [4]: 9.2%
- A450 as % of hEphA4-SEAP-His [5]: 5.7%
- A450 as % of hEphA4-SEAP-His [6]: 5.4%

B4: humanized antibody No. 73 (antibody, human IgG1, kappa)
heavy: B2 heavy with V2I, Q62D, G63D, T65K
light: B1 light
notes: as for B1
- A450 as % of hEphA4-SEAP-His [1]: 5.7%
- A450 as % of hEphA4-SEAP-His [2]: 5.8%
- A450 as % of hEphA4-SEAP-His [3]: 100%
- A450 as % of hEphA4-SEAP-His [4]: 7.4%
- A450 as % of hEphA4-SEAP-His [5]: 5.7%
- A450 as % of hEphA4-SEAP-His [6]: 5.7%

B5: humanized antibody No. 93 (antibody, human IgG1, kappa)
heavy: B2 heavy with K46E
light: B1 light
notes: human Ig kappa; also called L2-4/HA1
- A450 as % of hEphA4-SEAP-His [1]: 5%
- A450 as % of hEphA4-SEAP-His [2]: 5.1%
- A450 as % of hEphA4-SEAP-His [3]: 100%
- A450 as % of hEphA4-SEAP-His [4]: 7.1%
- A450 as % of hEphA4-SEAP-His [5]: 5%
- A450 as % of hEphA4-SEAP-His [6]: 5%

B6: humanized antibody No. 95 (antibody, human IgG1, kappa)
heavy: B2 heavy with K46E, Q62D, G63D, T65K
light: B1 light
notes: human Ig kappa; also called L2-4/HK1
- A450 as % of hEphA4-SEAP-His [1]: 4.6%
- A450 as % of hEphA4-SEAP-His [2]: 4.6%
- A450 as % of hEphA4-SEAP-His [3]: 100%
- A450 as % of hEphA4-SEAP-His [4]: 7%
- A450 as % of hEphA4-SEAP-His [5]: 4.2%
- A450 as % of hEphA4-SEAP-His [6]: 4.6%

B7: humanized antibody No. 96 (antibody, human IgG1, kappa)
heavy: B2 heavy with Q62D, G63D, T65K
light: B1 light
notes: human Ig kappa; also called L2-4/HK2
- A450 as % of hEphA4-SEAP-His [1]: 5.5%
- A450 as % of hEphA4-SEAP-His [2]: 5.6%
- A450 as % of hEphA4-SEAP-His [3]: 100%
- A450 as % of hEphA4-SEAP-His [4]: 9.8%
- A450 as % of hEphA4-SEAP-His [5]: 5.3%
- A450 as % of hEphA4-SEAP-His [6]: 5.6%
